Data: paper PMC10334339

Substrate: O=c1[nH]c(=O)n([C@H]2C[C@H](O)[C@@H](COP(=O)(O)O)O2)cc1CO
Test: purified protein
Type: biochemical, Homo sapiens

B1: 2′-Deoxynucleoside 5′-monophosphate N-glycosidase 1 (DNPH1) (Homo sapiens) (protein)
chain: AAAMVPGRSESWERGEPGRPALYFCGSIRGGREDRTLYERIVSRLRRFGTVLTEHVAAAELGARGEEAAGGDRLIHEQDLEWLQQADVVVAEVTQPSLGVGYELGRAVAFNKRILCLFRPQSGRVLSAMIRGAADGSRFQVWDYEEGEVEALLDRYFEADPPGQVAASPDPTT
Km: 6.3 ± 0.5 µM
